Reference: article PMC2929994 (Molecular Biology of the Cell, 2010)
Like-named read-outs stand apart in the source and are kept apart here.

B1: Rsr1^K16N, split-YFP fusion for BiFC (natural protein, S. cerevisiae, UniProt P13856 1-272, looked up)
chain: MRDYKLVVLGAGGVGNSCLTVQFVQGVYLDTYDPTIEDSYRKTIEIDNKVFDLEILDTAGIAQFTAMRELYIKSGMGFLLVYSVTDRQSLEELMELREQVLRIKDSDRVPMVLIGNKADLINERVISVEEGIEVSSKWGRVPFYETSALLRSNVDEVFVDLVRQIIRNEMESVAVKDARNQSQQFSKIESPSTRLPSSAKQDTKQSNNKQSSKGLYNKSSQGQAKVKQSTPVNEKHKPSHAVPKSGSSNRTGISATSQQKKKKKNASTCTIL

Legend:
Experiment in all cases: split reporter
[1] = target: Rsr1 GTPase, split-YFP fusion for BiFC (YFP^N-Rsr1 / YFP^C-Rsr1) (S. cerevisiae) (UniProt P13856)
[2] = target: Rsr1 GTPase, split-YFP fusion for BiFC (YFP^N-Rsr1 / YFP^C-Rsr1) (S. cerevisiae) (UniProt P13856); remark: listed apart in the source
split reporter = target: the molecule itself

Molecule	percent of unbudded cells with BiFC signal [1]	percent of unbudded cells with BiFC signal [2]	percent of unbudded cells with BiFC signal (split reporter)
Rsr1-7^K260–264S, split-YFP fusion for BiFC (from UniProt P13856 1-272) (natural protein)	< 2%	1.7%	–
B1	–	–	84%
